Laboratory results published in EP0946727B1.
pEC50, pIC50, pKd: −log10 of the molar value.

Tests used:
human CD11a (human) [1] = molecular target: human CD11a (human) (UniProt P20701); assay: binding to Jurkat cells (FACScan)
human CD11a (human) [2] = molecular target: human CD11a (human) (UniProt P20701); assay: blocking of Jurkat cell adhesion to human keratinocytes (ICAM-1)
human CD11a (human) [3] = molecular target: human CD11a (human) (UniProt P20701); assay: cell binding, human CD11a
human CD11a (human) [4] = molecular target: human CD11a (human) (UniProt P20701); assay: saturation binding of 125I-antibody to human peripheral blood mononuclear cells, Kd(app)
human CD11a (human) [5] = molecular target: human CD11a (human) (UniProt P20701); assay: cell-based or functional assay
human CD11a (human) [6] = molecular target: human CD11a (human) (UniProt P20701); assay: saturation binding, human lymphocytes, donor 2, Kd(app)
human CD11a (human) [7] = molecular target: human CD11a (human) (UniProt P20701); assay: saturation binding, human lymphocytes, donor 1, Kd(app)
human CD11a (human) [8] = molecular target: human CD11a (human) (UniProt P20701); assay: FACScan on Jurkat cells
rhesus CD18 (rhesus) [9] = molecular target: rhesus CD18 (rhesus) (UniProt H9Z8N5); assay: blocking of rhesus lymphocyte adhesion to recombinant human ICAM-1 on plates
rhesus CD18 (rhesus) [10] = molecular target: rhesus CD18 (rhesus) (UniProt H9Z8N5); assay: blocking of rhesus lymphocyte adhesion to human keratinocytes

Chain of chimeric MHM24 IgG1 (antibody) (main, form in doubt): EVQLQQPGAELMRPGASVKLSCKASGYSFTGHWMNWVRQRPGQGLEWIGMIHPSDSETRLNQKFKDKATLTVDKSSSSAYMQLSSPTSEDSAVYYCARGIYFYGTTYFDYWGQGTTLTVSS
Chain of chimeric MHM24 IgG1 (antibody) (main, form in doubt): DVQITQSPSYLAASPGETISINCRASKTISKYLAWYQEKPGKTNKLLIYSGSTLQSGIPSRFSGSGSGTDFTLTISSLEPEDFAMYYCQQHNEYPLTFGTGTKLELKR
Chain of human CD11a (human) (P20701 26-1170): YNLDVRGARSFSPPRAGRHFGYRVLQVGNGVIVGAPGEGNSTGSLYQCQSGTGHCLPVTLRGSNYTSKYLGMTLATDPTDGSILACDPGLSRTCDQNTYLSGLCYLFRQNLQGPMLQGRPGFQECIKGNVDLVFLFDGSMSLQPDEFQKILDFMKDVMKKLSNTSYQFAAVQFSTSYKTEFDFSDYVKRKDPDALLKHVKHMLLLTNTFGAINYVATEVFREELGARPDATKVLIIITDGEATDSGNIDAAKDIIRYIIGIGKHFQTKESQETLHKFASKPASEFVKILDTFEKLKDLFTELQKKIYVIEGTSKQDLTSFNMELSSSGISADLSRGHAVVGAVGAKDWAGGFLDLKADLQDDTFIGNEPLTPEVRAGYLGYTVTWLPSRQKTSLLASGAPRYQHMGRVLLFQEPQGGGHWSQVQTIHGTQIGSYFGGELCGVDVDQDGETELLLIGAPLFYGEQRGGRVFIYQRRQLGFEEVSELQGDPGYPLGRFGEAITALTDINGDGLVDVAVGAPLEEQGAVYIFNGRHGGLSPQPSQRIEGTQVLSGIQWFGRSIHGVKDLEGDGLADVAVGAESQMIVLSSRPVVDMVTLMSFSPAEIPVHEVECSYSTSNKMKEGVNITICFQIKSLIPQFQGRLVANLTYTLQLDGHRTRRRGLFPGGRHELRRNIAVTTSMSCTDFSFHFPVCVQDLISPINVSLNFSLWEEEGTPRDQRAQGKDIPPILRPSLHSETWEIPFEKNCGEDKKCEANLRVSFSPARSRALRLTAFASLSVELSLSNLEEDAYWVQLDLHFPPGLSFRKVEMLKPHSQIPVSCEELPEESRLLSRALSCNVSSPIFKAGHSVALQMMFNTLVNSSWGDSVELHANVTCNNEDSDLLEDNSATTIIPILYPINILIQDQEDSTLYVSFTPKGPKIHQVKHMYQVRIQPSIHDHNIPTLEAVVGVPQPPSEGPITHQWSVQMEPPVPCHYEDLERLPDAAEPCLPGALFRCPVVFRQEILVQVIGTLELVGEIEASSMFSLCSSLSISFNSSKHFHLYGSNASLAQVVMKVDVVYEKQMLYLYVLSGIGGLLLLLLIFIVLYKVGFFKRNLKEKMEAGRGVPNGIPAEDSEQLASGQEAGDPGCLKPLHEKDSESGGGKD
Chain of humanized MHM24 IgG1 (antibody) (main, form in doubt): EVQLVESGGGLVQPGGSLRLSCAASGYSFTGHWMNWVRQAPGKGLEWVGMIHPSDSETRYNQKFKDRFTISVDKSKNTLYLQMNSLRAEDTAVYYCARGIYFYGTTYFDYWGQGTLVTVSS
Chain of humanized MHM24 IgG1 (antibody) (main, form in doubt): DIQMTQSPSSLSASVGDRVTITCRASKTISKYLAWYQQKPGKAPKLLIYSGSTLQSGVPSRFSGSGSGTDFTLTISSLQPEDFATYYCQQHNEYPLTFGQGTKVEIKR

Substance	pEC50 (human CD11a (human) [1])	pIC50 (human CD11a (human) [2])	Var.EC50/HuIgG1 EC50 (human CD11a (human) [3])	pKd (human CD11a (human) [4])	IC50, human mixed lymphocyte response (MLR) (human CD11a (human) [5]) [nM]	pKd (human CD11a (human) [6])	pKd (human CD11a (human) [7])	EC50 F(ab)/EC50 F(ab)-2 (human CD11a (human) [8])	EC50 (human CD11a (human) [8]) [ng/mL]	pIC50 (rhesus CD18 (rhesus) [9])	pIC50 (rhesus CD18 (rhesus) [10])
humanized MHM24 IgG1 (antibody)	10.38	9.89	1	9.82	0.38	9.74	9.96	0.004			
murine MHM24 (antibody)		10.05		9.82	0.19	9.89	9.80				
chimeric MHM24 IgG1 (antibody)		10.00						0.006	5.2		
murine anti-human CD18 antibody MHM23										8.92	8.80
